According to patent US20190338048A1:
Values joined by “and” are separate entries in the source; they are usually repeats but may differ in a detail not shown here. Identical values can stand only once. Like-named read-outs stand apart in the source and are kept apart here. Each block holds one substance with its values, some of them ahead of it.

What was measured:
[1] = molecular target: CR8071 lambda light chain L1, design 3122 (V133D_Y178T); assay: SMCA: H1,L1,H2,L2 co-expressed, protein A, LC-MS
[2] = molecular target: CR8071 lambda light chain L1, design 3878 (K129T_S180E); assay: SMCA: H1,L1,H2,L2 co-expressed, protein A, LC-MS
[3] = molecular target: Pertuzumab kappa light chain L135A (L2), N-terminal HA tag; assay: LCCA, SPR of light chain tags
[4] = molecular target: Pertuzumab kappa light chain, wild type (L2), N-terminal HA tag; assay: LCCA, SPR of light chain tags
[5] = molecular target: CAT-2200 lambda light chain T116F_S176F (L1), N-terminal FLAG tag; assay: LCCA, SPR of light chain tags
[6] = molecular target: Pertuzumab kappa light chain L135A (L2), N-terminal HA tag; assay: LCCA, SPR of light chain tags; remark: listed apart in the source
[7] = molecular target: Pertuzumab kappa light chain L135A_T178F (L2), N-terminal HA tag; assay: LCCA, SPR of light chain tags
[8] = molecular target: Pertuzumab kappa light chain T178F (L2), N-terminal HA tag; assay: LCCA, SPR of light chain tags
[9] = molecular target: Pertuzumab kappa light chain, wild type (L2), N-terminal HA tag; assay: LCCA, SPR of light chain tags; remark: listed apart in the source
[10] = molecular target: SGN-CD19a kappa light chain L2, design 3878 (Q124R_Q160K_T178R); assay: SMCA: H1,L1,H2,L2 co-expressed, protein A, LC-MS
[11] = molecular target: SGN-CD19a kappa light chain L2, design 3878 (Q124R_Q160K_T178R); assay: SMCA: H1,L1,H2,L2 co-expressed, protein A, LC-MS; remark: listed apart in the source
[12] = molecular target: CR8071 lambda light chain L1 (S180E), designs 2816 and 2827; assay: SMCA, System C, LC-MS
[13] = molecular target: CR8071 lambda light chain L1 (S180E), designs 2816 and 2827; assay: SMCA, System C
[14] = molecular target: Pertuzumab kappa light chain V133D_Q160E; assay: LCCA, SPR
[15] = molecular target: Pertuzumab kappa light chain V133D; assay: LCCA, SPR
[16] = molecular target: CAT-2200 lambda light chain T131K_V133S; assay: LCCA, SPR
[17] = molecular target: Pertuzumab kappa light chain Q124E_V133D_L135W; assay: LCCA, SPR tag read-out
[18] = molecular target: CAT-2200 lambda light chain E124Q_T131K_V133S; assay: LCCA, SPR tag read-out
[19] = molecular target: Pertuzumab kappa light chain Q124E_V133D; assay: LCCA, SPR
[20] = molecular target: CAT-2200 lambda light chain E124Q_T131K; assay: LCCA, SPR
[21] = molecular target: CAT-2200 lambda light chain E124Q_T131R; assay: LCCA, SPR
[22] = molecular target: Pertuzumab kappa light chain Q124E_V133D; assay: LCCA, SPR; remark: listed apart in the source
[23] = molecular target: SGN-CD19a kappa light chain L2, design 3122 (S176K_T178K); assay: SMCA: H1,L1,H2,L2 co-expressed, protein A, LC-MS
[24] = molecular target: SGN-CD19a kappa light chain L2, design 3122 (S176K_T178K); assay: SMCA: H1,L1,H2,L2 co-expressed, protein A, LC-MS; remark: listed apart in the source
[25] = molecular target: SGN-CD19a kappa light chain L2 of design 2830 (T178E_T180E); assay: SMCA: H1, L1, H2, L2 co-expressed in CHO-3E7
[26] = molecular target: CR8071 lambda light chain L1, design 3025 (E124Q_T131R); assay: SMCA: H1,L1,H2,L2 co-expressed, protein A, LC-MS
[27] = molecular target: CR8071 lambda light chain L1 of design 2830 (E124K_Y178R); assay: SMCA: H1, L1, H2, L2 co-expressed in CHO-3E7
[28] = molecular target: SGN-CD19a kappa light chain L2, design 3025 (S131D_V133G_T178F); assay: SMCA: H1,L1,H2,L2 co-expressed, protein A, LC-MS
[29] = molecular target: SGN-CD19a kappa light chain L2, design 3025 (S131D_V133G_T178F); assay: SMCA: H1,L1,H2,L2 co-expressed, protein A, LC-MS; remark: listed apart in the source
[30] = molecular target: Pertuzumab light chain (kappa) Q124E_V133D, HA-tagged; assay: LCCA
[31] = molecular target: CAT-2200 light chain (lambda) E124Q_T131R, FLAG-tagged; assay: LCCA
[32] = molecular target: Pertuzumab light chain (kappa) Q124E_V133D, HA-tagged; assay: LCCA; remark: listed apart in the source
[33] = molecular target: CAT-2200 light chain (lambda) E124Q_T131K, FLAG-tagged; assay: LCCA
[34] = molecular target: CAT-2200 lambda light chain T131K_V133S; assay: LCCA, SPR; remark: listed apart in the source
[35] = molecular target: Pertuzumab light chain (kappa) V133G_S176D_T180E, HA-tagged; assay: LCCA
[36] = molecular target: Pertuzumab light chain (kappa) V133G_S176D_T178E, HA-tagged; assay: LCCA
[37] = molecular target: Pertuzumab light chain (kappa) V133G_S176D_T180E, HA-tagged; assay: LCCA; remark: listed apart in the source
[38] = molecular target: Pertuzumab light chain (kappa) V133G_S176D_T178E, HA-tagged; assay: LCCA; remark: listed apart in the source
[39] = molecular target: Pertuzumab light chain (kappa) V133G_S176D_T180E, HA-tagged; assay: LCCA; remark: listed apart in the source
[40] = molecular target: SGN-CD19a kappa light chain L2, designs 2892 and 2994 (Q124E_V133D); assay: SMCA: H1,L1,H2,L2 co-expressed, protein A, LC-MS
[41] = molecular target: SGN-CD19a kappa light chain L2, designs 2892 and 2994 (Q124E_V133D); assay: SMCA: H1,L1,H2,L2 co-expressed, protein A, LC-MS; remark: listed apart in the source
[42] = molecular target: SGN-CD19a kappa light chain L2, designs 2892 and 2994 (Q124E_V133D); assay: SMCA: H1,L1,H2,L2 co-expressed, protein A, LC-MS; remark: listed apart in the source
[43] = molecular target: SGN-CD19a kappa light chain L2, designs 2892 and 2994 (Q124E_V133D); assay: SMCA: H1,L1,H2,L2 co-expressed, protein A, LC-MS; remark: listed apart in the source
[44] = molecular target: His-tagged Influenza B Hemagglutinin (B/Brisbane/60/2008) (Influenza B (B/Brisbane/60/2008))

Substance: CR8071 heavy chain H1, design 3122 (S186K_S188T)
% H1L1 Pairing [1]: 65.8%
Change in % H1L1 Pairing with respect to wild type [1]: -16.5%

Substance: Pertuzumab Fab heavy chain L143K
H2L2:H2L1 normalized median ratio [19]: 91%
H2L2:H2L1 normalized median scalar value ln(r1/f1) [19]: 2.3
H2L2:H2L1 normalized median ratio [20]: 8%
H2L2:H2L1 normalized median ratio [21]: 9%
H2L2:H2L1 normalized median ratio [22]: 92%
H2L2:H2L1 normalized median scalar value ln(r1/f1) [22]: 2.48

Substance: CR8071 heavy chain H1, design 3025 (L143D_K145T)
% H1L1 Pairing [26]: 43.9%
Change in % H1L1 Pairing with respect to wild type [26]: -4.5%

Substance: SGN-CD19a heavy chain H2, design 3025 (S188K)
% H2L2 Pairing [28]: 87.9%
Change in % H2L2 Pairing with respect to wild type [28]: 33.7%
% H2L2 Pairing [29]: 99.7%
Change in % H2L2 Pairing with respect to wild type [29]: 20.1%

Substance: Pertuzumab heavy chain Fab construct L143R
H2L2:H2L1 normalized median ratio, H2L2 share [30]: 96%
H2L2:H2L1 normalized median scalar value ln(r1/f1) [30]: 3.06
H2L2:H2L1 normalized median ratio (H2L1 share) [31]: 4%

Substance: Pertuzumab heavy chain Fab construct L143K
H2L2:H2L1 normalized median ratio, H2L2 share [32]: 92%
H2L2:H2L1 normalized median scalar value ln(r1/f1) [32]: 2.48
H2L2:H2L1 normalized median ratio, H2L2 share [30]: 91%
H2L2:H2L1 normalized median scalar value ln(r1/f1) [30]: 2.3
H2L2:H2L1 normalized median ratio (H2L1 share) [33]: 8%
H2L2:H2L1 normalized median ratio (H2L1 share) [31]: 9%

Substance: CR8071 heavy chain H1, design 2816 (Q179K)
Change in % H1L1 Pairing with respect to wild type [12]: 17%
% H1L1 Pairing [13]: 99.3%

Substance: CR8071 wild type one-armed antibody (OAA), FLAG-tagged light chain
Kd [44]: 332 pM

Substance: CR8071 wild type one-armed antibody (OAA), no tags
Kd [44]: 385 pM and 379 pM

Substance: Pertuzumab heavy chain Fab construct L124R_S186R
H2L2:H2L1 normalized median scalar value ln(r1/f1) [35]: 1.21
H2L2:H2L1 normalized median scalar value ln(r1/f1) [36]: 1.04
H2L2:H2L1 normalized median scalar value ln(r1/f1) [37]: 1.5
H2L2:H2L1 normalized median scalar value ln(r1/f1) [38]: 1.18
H2L2:H2L1 normalized median scalar value ln(r1/f1) [39]: 1.47

Further lines, results first:

% H1L1 Pairing [2]: 99.3%
Change in % H1L1 Pairing with respect to wild type [2]: 17%
Substance: CR8071 heavy chain H1, design 3878 (Q179K)

H2L2:H2L1 normalized median ratio [3]: 42%
H2L2:H2L1 normalized median scalar value ln(r1/f1) [3]: -0.34
H2L2:H2L1 normalized median ratio [4]: 65%
H2L2:H2L1 normalized median scalar value ln(r1/f1) [4]: 0.6
H2L2:H2L1 normalized median ratio [5]: 29%
H2L2:H2L1 normalized median ratio [6]: 44%
H2L2:H2L1 normalized median scalar value ln(r1/f1) [6]: -0.26
H2L2:H2L1 normalized median ratio [7]: 60%
H2L2:H2L1 normalized median scalar value ln(r1/f1) [7]: 0.41
H2L2:H2L1 normalized median ratio [8]: 71%
H2L2:H2L1 normalized median scalar value ln(r1/f1) [8]: 0.9
H2L2:H2L1 normalized median ratio [9]: 62%
H2L2:H2L1 normalized median scalar value ln(r1/f1) [9]: 0.47
Substance: Pertuzumab Fab heavy chain V190F (H2), ABD2-His6 tagged

% H2L2 Pairing [10]: 28.7%
Change in % H2L2 Pairing with respect to wild type [10]: -8.9%
% H2L2 Pairing [11]: 67.4%
Change in % H2L2 Pairing with respect to wild type [11]: 7.5%
Substance: SGN-CD19a heavy chain H2, design 3878 (L143E_K145T_S188L)

Change in % H1L1 Pairing with respect to wild type [12]: 15.9%
% H1L1 Pairing [13]: 98.2%
Substance: CR8071 heavy chain H1, design 2827 (S186R)

H2L2:H2L1 normalized median scalar value ln(r1/f1) [14]: 1.5
H2L2:H2L1 normalized median ratio [15]: 72%
H2L2:H2L1 normalized median scalar value ln(r1/f1) [15]: 0.92
H2L2:H2L1 normalized median ratio [16]: 28%
H2L2:H2L1 median scalar value [17]: 1.69 ln(ratio)
H2L2:H2L1 normalized median ratio [17]: 84%
H2L2:H2L1 normalized median ratio [18]: 16%
Substance: Pertuzumab Fab heavy chain L143I_S186K

% H2L2 Pairing [23]: 89.7%
Change in % H2L2 Pairing with respect to wild type [23]: 52.1%
% H2L2 Pairing [24]: 99.8%
Change in % H2L2 Pairing with respect to wild type [24]: 39.9%
Substance: SGN-CD19a heavy chain H2, design 3122 (K145T_V177D_S188D)

% H2L2 Pairing [25]: 99.6%
Change in % H2L2 Pairing with respect to wild type [25]: 20%
Substance: SGN-CD19a heavy chain H2 of design 2830 (S186R), full-length with heterodimeric IgG1 Fc

% H1L1 Pairing [27]: 28%
Change in % H1L1 Pairing with respect to wild type [27]: -20.4%
Substance: CR8071 heavy chain H1 of design 2830 (L143E_K145T_Q179E), full-length with heterodimeric IgG1 Fc

H1L1:H1L2 normalized median scalar value ln(r1/f1) [16]: 0.41
H1L1:H1L2 normalized median scalar value ln(r1/f1) [34]: 0.58
Substance: CAT-2200 Fab heavy chain L143D_K145T_Q179E

H2L2:H2L1 normalized median scalar value ln(r1/f1) [35]: 0.63
H2L2:H2L1 normalized median scalar value ln(r1/f1) [36]: 0.77
H2L2:H2L1 normalized median scalar value ln(r1/f1) [37]: 0.95
H2L2:H2L1 normalized median scalar value ln(r1/f1) [38]: 0.69
H2L2:H2L1 normalized median scalar value ln(r1/f1) [39]: 0.97
Substance: Pertuzumab heavy chain Fab construct L124R_Q179K

% H2L2 Pairing [40]: 94.3%
Change in % H2L2 Pairing with respect to wild type [40]: 40.1%
% H2L2 Pairing [41]: 99.6%
Change in % H2L2 Pairing with respect to wild type [41]: 20%
% H2L2 Pairing [42]: 99.2%
Change in % H2L2 Pairing with respect to wild type [42]: 45%
% H2L2 Pairing [43]: 99.7%
Change in % H2L2 Pairing with respect to wild type [43]: 20.1%
Substance: SGN-CD19a heavy chain H2, designs 2892 and 2994 (L143K)
